{"source": "paper PMC2156119", "about": "(The Journal of Cell Biology, 1999)", "binders": {"B1": {"name": "Op18-wt-F (oncoprotein 18/stathmin, wild type, COOH-terminal Flag epitope) (natural protein, human, UniProt P16949 1-149, looked up)", "chain": "MASSDIQVKELEKRASGQAFELILSPRSKESVPEFPLSPPKKKDLSLEEIQKKLEAAEERRKSHEAEVLKQLAEKREHEKEVLQKAIEENNNFSKMAEEKLTHKMEANKENREAQMAAKLERLREKDKHIEEVRKNKESKDPADETEAD"}}, "key": {"[1]": {"target": "T1, tubulin heterodimer (bovine tubulin) (bovine, UniProt Q6B856 1-445)", "assay": "pull-down"}, "[2]": {"target": "T1, tubulin heterodimer (bovine tubulin)", "assay": "pull-down", "remark": "listed apart in the source"}}, "note": "Like-named read-outs stand apart in the source and are kept apart here.", "data": [{"binder": "B1", "values": [{"measurement": "koff", "setting": "[1]", "result": 0.01, "unit": "s⁻¹"}, {"measurement": "koff", "setting": "[2]", "result": 0.0025, "unit": "s⁻¹"}]}]}
